# Laboratory results as given in US20260183411A1, “TARGETING SORTILIN” (priority 2024, published 2026).
# Bridges are numbered along the chain shown (N, C = ends). Where no end group is shown, it is not given here. Side-chain parts run from the residue outwards. [ ]: non-standard residue; d: D form. tBuAla = CC(C)(C)C[C@H](N)C(=O)O; Tle = CC(C)(C)[C@H](N)C(=O)O; linker = not defined here; Nle = CCCC[C@H](N)C(=O)O; siRNA = not defined here
# T1: rat SORT1 (76-752)-His (rat, UniProt O54861 76-752)
# T1 construct: range 76-752; Amine-coupled to CM5 chip for SPR
# T1 sequence (looked up): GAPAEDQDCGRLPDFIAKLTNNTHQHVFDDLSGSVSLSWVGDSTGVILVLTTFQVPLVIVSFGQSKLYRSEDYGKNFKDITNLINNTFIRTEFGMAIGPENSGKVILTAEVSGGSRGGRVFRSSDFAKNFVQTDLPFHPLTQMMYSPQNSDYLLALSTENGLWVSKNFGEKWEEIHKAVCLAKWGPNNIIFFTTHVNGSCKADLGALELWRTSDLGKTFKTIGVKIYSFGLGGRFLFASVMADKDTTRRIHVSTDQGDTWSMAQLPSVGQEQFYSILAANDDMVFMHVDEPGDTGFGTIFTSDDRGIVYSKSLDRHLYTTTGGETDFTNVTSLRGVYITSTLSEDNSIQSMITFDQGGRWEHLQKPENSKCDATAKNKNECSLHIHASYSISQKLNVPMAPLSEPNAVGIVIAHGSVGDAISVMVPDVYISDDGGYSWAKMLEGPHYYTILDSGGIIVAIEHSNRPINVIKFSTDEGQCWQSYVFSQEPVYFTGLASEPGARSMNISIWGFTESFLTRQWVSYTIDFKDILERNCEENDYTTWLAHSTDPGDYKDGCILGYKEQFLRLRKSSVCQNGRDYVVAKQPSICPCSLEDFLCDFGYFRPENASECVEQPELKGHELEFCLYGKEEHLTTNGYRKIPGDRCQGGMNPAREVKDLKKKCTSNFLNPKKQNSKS
# T2: cyno SORT1 (76-753)-His (cyno, UniProt A0A2K5VHG2 74-751)
# T2 construct: range 76-753; Amine-coupled to CM5 chip for SPR
# T2 sequence: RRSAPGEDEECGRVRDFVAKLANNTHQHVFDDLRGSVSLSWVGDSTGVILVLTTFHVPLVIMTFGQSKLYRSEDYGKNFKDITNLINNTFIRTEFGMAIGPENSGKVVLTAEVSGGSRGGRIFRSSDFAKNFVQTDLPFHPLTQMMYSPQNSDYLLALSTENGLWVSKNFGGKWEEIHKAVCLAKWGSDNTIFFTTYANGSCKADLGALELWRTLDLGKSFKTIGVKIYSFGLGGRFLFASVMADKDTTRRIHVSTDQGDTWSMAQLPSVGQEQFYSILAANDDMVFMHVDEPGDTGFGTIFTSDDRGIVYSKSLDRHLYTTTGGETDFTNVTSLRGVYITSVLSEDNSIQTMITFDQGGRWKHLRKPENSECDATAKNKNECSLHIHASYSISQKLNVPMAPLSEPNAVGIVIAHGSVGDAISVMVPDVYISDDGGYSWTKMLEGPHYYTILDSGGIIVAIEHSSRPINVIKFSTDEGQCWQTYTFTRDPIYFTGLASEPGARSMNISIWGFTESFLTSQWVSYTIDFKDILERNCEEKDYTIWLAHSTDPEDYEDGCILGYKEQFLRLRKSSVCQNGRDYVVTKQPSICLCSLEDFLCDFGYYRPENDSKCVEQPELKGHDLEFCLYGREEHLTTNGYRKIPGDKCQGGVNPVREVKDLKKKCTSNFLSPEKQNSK
# Assays:
# rat SORT1 (76-752)-His = molecular target: T1, rat SORT1 (76-752)-His; assay: SPR (Biacore 8K), SORT1 on CM5 chip, siRNA-peptide conjugate as analyte, 1:1 model
# Procedure: (§1) SPR analysis was performed on Series S CM5 chips (Cytiva) using a Biacore 8K instrument (Cytiva). Sensorgrams were double-referenced by subtracting the response on both a reference flow cell and a blank sample. Human SORT1 (78-755)-His (Acrobiosystems), human SORT1 (78-755)-His(GenScript), mouse SORT1 (76-753)-His (R&D Systems), rat SORT1 (76-752)-His (GenScript), and cyno SORT1 (76-753)-His (GenScript) were diluted to 20-60 μg/mL in 10 mM sodium acetate pH 4.5 buffer and immobilized onto Series S CM5 chips using amine coupling at a flow rate of 10 μL/min for 45-100 s.
# (§2) Ten start-up cycles and a blank cycle preceded each analysis run. The runs were performed by sequential injections of analyte (0-20 nM, 3-fold serial dilutions) with a 90 s association and 900 s dissociation at a flow rate of 30 μL/min, followed by two regeneration cycles with 2 M MgCl2 for 90 s at a flow rate of 10 μL/min. […] Five start-up cycles and a blank cycle preceded each analysis run. The runs were performed by sequential injections of analyte (0-25 nM) with a 150 seconds (s) association and 300 s dissociation at a flow rate of 30 μL/min, followed by a regeneration with 2 M MgCl₂ for 200 s at a flow rate of 10 μL/min. The kinetic rate constants (kₐ and kd) and the equilibrium binding constant (Kd) were calculated using a 1:1 kinetic binding model on the Biacore Insight Evaluation Software (Cytiva).
# (§3) SPR analysis was performed on Series S CM5 chips (Cytiva) using a Biacore 8K instrument (Cytiva). Sensorgrams were double-referenced by subtracting the response on both a reference flow cell and a blank sample. The SPR analysis was conducted using four different SORT1 species: Human SORT1, Mouse SORT1, Rat SORT1, and Cyno SORT1. The samples were prepared according to the general procedure described above herein. The kinetic rate constants (ka and […]) and the equilibrium binding constant (Kd) were calculated using a 1:1 kinetic binding model on the Biacore Insight Evaluation Software (Cytiva).
# cyno SORT1 (76-753)-His = molecular target: T2, cyno SORT1 (76-753)-His; assay: as above
# Procedure: as §1, §2, §3
binder,measurement,setting,value
"RWCENK([linker-siRNA])R[Nle]FTCRQ[Tle][tBuAla] (disulfide 3-11 (inferred); not fully specified; printed as RWCENKR(Nle)FTCRQ(B13)(F02); reading uncertain, also called SORT1 peptide 3 siRNA conjugate) [SORT1 peptide 3 conjugate]",Kd,rat SORT1 (76-752)-His,253 nM
same,Kd,cyno SORT1 (76-753)-His,191 nM
